From IntAct's records for PubMed 34948388

B1: Multifunctional methyltransferase subunit TRM112-like protein (Homo sapiens), Q9UI30 (parent)
chain: MKLLTHNLLSSHVRGVGSRGFPLRLQATEVRICPVEFNPNFVARMIPKVEWSAFLEAADNLRLIQVPKGPVEGYEENEEFLRTMHHLLLEVEVIEGTLQCPESGRMFPISRGIPNMLLSEEETES
partner: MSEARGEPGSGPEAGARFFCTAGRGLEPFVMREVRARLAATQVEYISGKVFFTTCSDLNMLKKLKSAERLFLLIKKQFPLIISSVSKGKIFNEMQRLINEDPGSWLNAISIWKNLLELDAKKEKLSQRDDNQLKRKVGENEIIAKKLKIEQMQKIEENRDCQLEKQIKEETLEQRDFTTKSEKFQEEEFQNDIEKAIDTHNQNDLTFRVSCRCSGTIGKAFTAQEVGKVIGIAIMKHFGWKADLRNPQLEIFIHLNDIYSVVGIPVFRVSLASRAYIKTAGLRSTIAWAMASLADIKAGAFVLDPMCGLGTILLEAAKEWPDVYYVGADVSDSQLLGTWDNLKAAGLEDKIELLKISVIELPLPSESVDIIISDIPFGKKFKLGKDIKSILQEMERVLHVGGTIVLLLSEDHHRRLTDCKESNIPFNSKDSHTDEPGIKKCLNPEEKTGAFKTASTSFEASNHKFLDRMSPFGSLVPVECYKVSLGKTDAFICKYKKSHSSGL
B2: Multifunctional methyltransferase subunit TRM112-like protein (Homo sapiens), Q9UI30 (parent)
chain: B1 chain
partner: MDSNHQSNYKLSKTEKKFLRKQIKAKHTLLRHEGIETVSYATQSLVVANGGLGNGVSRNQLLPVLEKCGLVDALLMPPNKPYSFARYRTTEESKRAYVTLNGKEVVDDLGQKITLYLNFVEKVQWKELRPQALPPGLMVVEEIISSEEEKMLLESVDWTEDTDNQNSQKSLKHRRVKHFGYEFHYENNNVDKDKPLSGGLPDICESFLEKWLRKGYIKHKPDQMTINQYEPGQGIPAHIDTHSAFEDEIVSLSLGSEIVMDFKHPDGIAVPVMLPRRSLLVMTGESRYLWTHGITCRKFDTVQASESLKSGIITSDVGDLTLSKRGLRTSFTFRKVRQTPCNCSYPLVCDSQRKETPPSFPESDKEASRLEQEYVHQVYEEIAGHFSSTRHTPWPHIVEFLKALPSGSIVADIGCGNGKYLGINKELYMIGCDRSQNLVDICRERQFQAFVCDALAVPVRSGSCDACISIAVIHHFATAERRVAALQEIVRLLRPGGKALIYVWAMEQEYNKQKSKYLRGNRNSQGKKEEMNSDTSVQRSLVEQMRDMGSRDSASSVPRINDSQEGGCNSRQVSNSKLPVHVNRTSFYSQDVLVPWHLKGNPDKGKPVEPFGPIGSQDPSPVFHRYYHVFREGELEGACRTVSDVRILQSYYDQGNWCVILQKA

Variants of: B1
Conditions: with thum2_human THUMPD2, Q9BTF0

| Variant | effect of a mutation on the interaction |
| --- | --- |
| MKLLTHNLLFSHVRGVGSRGFPLRLQATEVRICPVEFNPNFVARMIPKVEWSAFLEAADNLRLIQVPKGPVEGYEENEEFLRTMHHLLLEVEVIEGTLQCPESGRMFPISRGIPNMLLSEEETES [S10F] | disrupting interaction strength |

Variants of: B2
Conditions: with alkb8_human ALKBH8, Q96BT7

| Variant | effect of a mutation on the interaction |
| --- | --- |
| MKLLAHNLLSSHVRGVGSRGFPLRLQATEVRICPVEFNPNFVARMIPKVEWSAFLEAADNLRLIQVPKGPVEGYEENEEFLRTMHHLLLEVEVIEGTLQCPESGRMFPISRGIPNMLLSEEETES [T5A] | disrupting interaction strength |
| MKLLTHNWLSSHVRGVGSRGFPLRLQATEVRICPVEFNPNFVARMIPKVEWSAFLEAADNLRLIQVPKGPVEGYEENEEFLRTMHHLLLEVEVIEGTLQCPESGRMFPISRGIPNMLLSEEETES [L8W] | with no effect |
| MKLLTHNLLFSHVRGVGSRGFPLRLQATEVRICPVEFNPNFVARMIPKVEWSAFLEAADNLRLIQVPKGPVEGYEENEEFLRTMHHLLLEVEVIEGTLQCPESGRMFPISRGIPNMLLSEEETES [S10F] | with no effect |
| MKLLTHNLLSSHVRGVGSRGFPLRLQATEVRICPVEFNPNFVARAIPKVEWSAFLEAADNLRLIQVPKGPVEGYEENEEFLRTMHHLLLEVEVIEGTLQCPESGRMFPISRGIPNMLLSEEETES [M45A] | disrupting interaction strength |
| MKLLTHNLLSSHVRGVGSRGFPLRLQATEVRICPVEFNPNFVARMIPAVEWSAFLEAADNLRLIQVPKGPVEGYEENEEFLRTMHHLLLEVEVIEGTLQCPESGRMFPISRGIPNMLLSEEETES [K48A] | with no effect |
| MKLLTHNLLSSHVRGVGSRGFPLRLQATEVRICPVEFNPNFVARMIPAVEWSAFLEAADNLRLIQVPKGPVEGYEENEEFLRTMHHLLLEVAVIEGTLQCPESGRMFPISRGIPNMLLSEEETES [K48A;E92A] | disrupting interaction strength |
| MKLLTHNLLSSHVRGVGSRGFPLRLQATEVRICPVEFNPNFVARMIPKVAWSAFLEAADNLRLIQVPKGPVEGYEENEEFLRTMHHLLLEVEVIEGTLQCPESGRMFPISRGIPNMLLSEEETES [E50A] | with no effect |
| MKLLTHNLLSSHVRGVGSRGFPLRLQATEVRICPVEFNPNFVARMIPKVEWSAFLEAADNLRLIQVPKGPVEGYEENEEFLRTMHHLLLEVAVIEGTLQCPESGRMFPISRGIPNMLLSEEETES [E92A] | decreasing interaction strength |
| MKLLTHNLLSSHVRGVGSRGFPLRLQATEVRICPVEFNPNFVARMIPKVEWSAFLEAADNLRLIQVPKGPVEGYEENEEFLRTMHHLLLEVEVIEGTLQCPESGRMAPISRGIPNMLLSEEETES [F107A] | decreasing interaction strength |
| MKLLTHNLLSSHVRGVGSRGFPLRLQATEVRICPVEFNPNFVARMIPKVEWSAFLEAADNLRLIQVPKGPVEGYEENEEFLRTMHHLLLEVEVIEGTLQCPESGRMFPISRGAPNMLLSEEETES [I113A] | with no effect |
